Biological target: T1, wild-type (polymerization-competent) yeast αβ-tubulin (yeast, UniProt P09733 1-447; P02557 1-457)
T1 construct: α-tubulin of yeast; β-tubulin of yeast, wild type; source: overexpressed in Saccharomyces cerevisiae, purified; copies: 1 + 1
Assay: AUC; sedimentation velocity; seven concentrations of TOG1 or TOG2 (44 nM-4.5 μM) titrated into 0.35 μM αβ-tubulin; 1:1 binding isotherm fitted; RB100 with 20 μM GTP, 20°C
Conditions: both partners purified

B1: TOG2 domain from Stu2p, TOG2(318-560) (domain or fragment)
chain: MLPEETILDKLPKDFQERITSSKWKDRVEALEEFWDSVLSQTKKLKSTSQNYSNLLGIYGHIIQKDANIQAVALAAQSVELICDKLKTPGFSKDYVSLVFTPLLDRTKEKKPSVIEAIRKALLTICKYYDPLASSGRNEDMLKDILEHMKHKTPQIRMECTQLFNASMKEEKDGYSTLQRYLKDEVVPIVIQIVNDTQPAIRTIGFESFAILIKIFGMNTFVKTLEHLDNLKRKKIEETVKTL
With B1 the Kd was 160 nM and the “stoichiometry N” value was 1.
